# Test results reported in PMC9741242, “Insights into the Structure of the Highly Glycosylated Ffase from Rhodotorula dairenensis Enhance Its Biotechnological Potential” (International Journal of Molecular Sciences, 2022).
# Positions count from the first letter of the chain named. Names may count otherwise.
# B1: RdINVΔ21–139 (Rhodotorula dairenensis) (protein)
# chain: SSSCAPTSLPASATELPTTVPTGTVITGDYTGSYRPQVHYSPPKGFMNDPNGCHRDRNGTYHLYYQYNPLEYVAGNQHWGHATSDDLYHWTNQPIAIFPPNSTSQVFSGSAVLDPNNTSGFFPNTTDGVVAVYTLNTPTLQVQEVAYSTDGGYNFTPYENNPVLSVGSNQFRDPKVFWYEDHWVMAVAAANDFTIEIYTSPNLTSWTFASNFTHHGLLGLAYECPNLVQVPFQDDPSKSAWLMYISINPGAPLGGSVGQYFPGDFNGTHFVAYDSAARIADFAKDNYASQWFADTENGESISIAWASNWQYTQQVPTSAQAFRSAMSLPRRNYLTNITRLGWDLVSLPYDLSPVVGPSLLSSSEANSTADVDFTNVTSNAVWFSLNVTLPDAAIQNASLISADASINITFLPSTKCSSSSGSGSDSPAATLTYFYAGLTNGALALTRPAASSSWGAENPFFTDKFSYTLVDPLTSLVGVFDRSMLEVFVNEGAHSATMLVFPDSPVGSMKVATGGLPEGTQVNLQVNGLESTWQSS
# notes: truncated: residues 21-139 deleted after the signal peptide (residues 140-675 remain); secreted by Komagataella phaffii, glycosylated, ~100 kDa; homodimer; deglycosylated for crystals
# B2: RdINV (Rhodotorula dairenensis; A213W/Q216L) (protein)
# chain: APAASSLAGPVTTGVFSAVSAIPSFATNLSGQVASATSTVLSGSTASGSSATAAPSASASGASSMQSMASSLSGSAFSPSSMMPIASGNMTMPNMTSSASASSAASTATGVAGGAGSNSSSSCAPTSLPASATELPTTVPTGTVITGDYTGSYRPQVHYSPPKGFMNDPNGCHRDRNGTYHLYYQYNPLEYVWGNLHWGHATSDDLYHWTNQPIAIFPPNSTSQVFSGSAVLDPNNTSGFFPNTTDGVVAVYTLNTPTLQVQEVAYSTDGGYNFTPYENNPVLSVGSNQFRDPKVFWYEDHWVMAVAAANDFTIEIYTSPNLTSWTFASNFTHHGLLGLAYECPNLVQVPFQDDPSKSAWLMYISINPGAPLGGSVGQYFPGDFNGTHFVAYDSAARIADFAKDNYASQWFADTENGESISIAWASNWQYTQQVPTSAQAFRSAMSLPRRNYLTNITRLGWDLVSLPYDLSPVVGPSLLSSSEANSTADVDFTNVTSNAVWFSLNVTLPDAAIQNASLISADASINITFLPSTKCSSSSGSGSDSPAATLTYFYAGLTNGALALTRPAASSSWGAENPFFTDKFSYTLVDPLTSLVGVFDRSMLEVFVNEGAHSATMLVFPDSPVGSMKVATGGLPEGTQVNLQVNGLESTWQSS
# notes: full-length RdINV, 675 residues, S. cerevisiae MFalpha secretion signal in pIB4, secreted by Komagataella phaffii; highly N- and O-glycosylated, ~170 kDa; homodimer
# B3: RdINV (Rhodotorula dairenensis; N387T) (protein)
# chain: B2 chain with W193A, L196Q, N367T
# notes: as for B2
# B4: RdINV (Rhodotorula dairenensis; A360Q/N387T) (protein)
# chain: B2 chain with W193A, L196Q, A340Q, N367T
# notes: as for B2
# B5: RdINV (Rhodotorula dairenensis; A360Q) (protein)
# chain: B2 chain with W193A, L196Q, A340Q
# notes: as for B2
# B6: RdINV (Rhodotorula dairenensis; Q216T) (protein)
# chain: B2 chain with W193A, L196T
# notes: as for B2
# B7: RdINV (Rhodotorula dairenensis; A213W) (protein)
# chain: B2 chain with L196Q
# notes: as for B2
# B8: RdINV (Rhodotorula dairenensis; Q216L) (protein)
# chain: B2 chain with W193A
# notes: as for B2
# B9: RdINV (Rhodotorula dairenensis) (protein)
# chain: B2 chain with W193A, L196Q
# notes: as for B2
# Substrate: OC[C@H]1O[C@@](CO)(O[C@H]2O[C@H](CO)[C@@H](O)[C@H](O)[C@H]2O)[C@@H](O)[C@@H]1O
# Experiment: DNS reducing sugar assay, Michaelis-Menten fit
# Format: biochemical, Rhodotorula dairenensis
# Conditions: 50 mM sodium phosphate pH 5.5, 60 °C, sucrose 1-200 mM
# From the text: DNS reducing sugar assay, Michaelis-Menten fit on RdINVΔ21–139
Protein,Km [mM],kcat [s⁻¹],kcat/Km [M⁻¹ s⁻¹]
B1,9 ± 1,16400 ± 216,1.781e+06 ± 16000

# Substrate: OC[C@H]1O[C@@](CO)(O[C@H]2O[C@H](CO)[C@@H](O)[C@H](O)[C@H]2O)[C@@H](O)[C@@H]1O
# Experiment: DNS reducing sugar assay, Michaelis-Menten fit
# Format: biochemical, Rhodotorula dairenensis
# Conditions: 50 mM sodium phosphate pH 5.5, 60 °C, sucrose 1-200 mM
# Remark: another data set of the same source
# From the text: DNS reducing sugar assay, Michaelis-Menten fit on RdINV
Protein,Km [mM],kcat [s⁻¹],kcat/Km [M⁻¹ s⁻¹]
B2,88 ± 9,10500 ± 329,120000 ± 4000
B3,17 ± 0.8,583 ± 5,35000 ± 1000
B4,14 ± 0.6,486 ± 4,34000 ± 1000
B5,15 ± 0.2,3814 ± 16,251000 ± 21000
B6,13 ± 1,11500 ± 182,864000 ± 39000
B7,47 ± 3,2720 ± 45,58000 ± 3000
B8,24 ± 1,2324 ± 13,98000 ± 3000
B9,5 ± 0.1,4751 ± 25,1.011e+06 ± 10000
